From article PMC3538890 (Traffic (Copenhagen, Denmark), 2012)
Blank lines part the entries; values can stand above or below the binder they belong to.

Biological target: T1, CFP-GS27 (UniProt O14653 1-212)
T1 sequence (looked up): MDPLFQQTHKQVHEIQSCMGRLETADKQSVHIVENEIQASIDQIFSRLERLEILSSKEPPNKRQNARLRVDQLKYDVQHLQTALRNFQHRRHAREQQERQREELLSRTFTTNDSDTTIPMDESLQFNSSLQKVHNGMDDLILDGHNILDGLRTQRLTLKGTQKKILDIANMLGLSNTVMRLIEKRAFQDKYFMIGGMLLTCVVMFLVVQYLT
Assay: co-IP

fold reduction of co-IP against full length COG6-myc: ~7 fold
B1: COG6-myc with deletion of residues 112-150 (natural protein, human, UniProt Q9Y2V7 1-657, looked up)
chain: MAEGSGEVVAVSATGAANGLNNGAGGTSATTCNPLSRKLHKILETRLDNDKEMLEALKALSTFFVENSLRTRRNLRGDIERKSLAINEEFVSIFKEVKEELESISEDVQAMQVADAFLSKFQLTSDEMSLLRGTREGPITEDFFKALGRVKQIHNDVKVLLRTNQQTAGLEIMEQMALLQETAYERLYRWAQSECRTLTQESCDVSPVLTQAMEALQDRPVLYKYTLDEFGTARRSTVVRGFIDALTRGGPGGTPRPIEMHSHDPLRYVGDMLAWLHQATASEKEHLEALLKHVTTQGVEENIQEVVGHITEGVCRPLKVRIEQVIVAEPGAVLLYKISNLLKFYHHTISGIVGNSATALLTTIEEMHLLSKKIFFNSLSLHASKLMDKVELPPPDLGPSSALNQTLMLLREVLASHDSSVVPLDARQADFVQVLSCVLDPLLQMCTVSASNLGTADMATFMVNSLYMMKTTLALFEFTDRRLEMLQFQIEAHLDTLINEQASYVLTRVGLSYIYNTVQQHKPEQGSLANMPNLDSVTLKAAMVQFDRYLSAPDNLLIPQLNFLLSATVKEQIVKQSTELVCRAYGEVYAAVMNPINEYKDPENILHRSPQQVQTLLS

fold reduction of co-IP against full length COG6-myc: ~7 fold
B2: COG6-myc with deletion of residues 76-112 (natural protein, human, UniProt Q9Y2V7 1-657, looked up)
chain: MAEGSGEVVAVSATGAANGLNNGAGGTSATTCNPLSRKLHKILETRLDNDKEMLEALKALSTFFVENSLRTRRNLNCCQDMTSRLQAAKEQTQDLIVKTTKLQSESQKLEIRAQVADAFLSKFQLTSDEMSLLRGTREGPITEDFFKALGRVKQIHNDVKVLLRTNQQTAGLEIMEQMALLQETAYERLYRWAQSECRTLTQESCDVSPVLTQAMEALQDRPVLYKYTLDEFGTARRSTVVRGFIDALTRGGPGGTPRPIEMHSHDPLRYVGDMLAWLHQATASEKEHLEALLKHVTTQGVEENIQEVVGHITEGVCRPLKVRIEQVIVAEPGAVLLYKISNLLKFYHHTISGIVGNSATALLTTIEEMHLLSKKIFFNSLSLHASKLMDKVELPPPDLGPSSALNQTLMLLREVLASHDSSVVPLDARQADFVQVLSCVLDPLLQMCTVSASNLGTADMATFMVNSLYMMKTTLALFEFTDRRLEMLQFQIEAHLDTLINEQASYVLTRVGLSYIYNTVQQHKPEQGSLANMPNLDSVTLKAAMVQFDRYLSAPDNLLIPQLNFLLSATVKEQIVKQSTELVCRAYGEVYAAVMNPINEYKDPENILHRSPQQVQTLLS
